Laboratory results reported in PMC5007465, “Cullin3-KLHL15 ubiquitin ligase mediates CtIP protein turnover to fine-tune DNA-end resection” (Nature Communications, 2016).
Where no end group is shown, it is not given here.

Target: T1, MBP-KLHL15-His (human, UniProt Q96M94 1-604)
T1 construct: KLHL15, human; gene amplified from the pCMV6-KLHL15 vector and subcloned into the pFB-MBP-fusion plasmid; In the pull-downs MBP was kept (coupled to amylose beads); MBP was cleaved only for the protein purified further; also called recombinant MBP-KLHL15; recombinant KLHL15 purified from insect cells; not shown: MBP, N-terminal, kept
T1 sequence (looked up): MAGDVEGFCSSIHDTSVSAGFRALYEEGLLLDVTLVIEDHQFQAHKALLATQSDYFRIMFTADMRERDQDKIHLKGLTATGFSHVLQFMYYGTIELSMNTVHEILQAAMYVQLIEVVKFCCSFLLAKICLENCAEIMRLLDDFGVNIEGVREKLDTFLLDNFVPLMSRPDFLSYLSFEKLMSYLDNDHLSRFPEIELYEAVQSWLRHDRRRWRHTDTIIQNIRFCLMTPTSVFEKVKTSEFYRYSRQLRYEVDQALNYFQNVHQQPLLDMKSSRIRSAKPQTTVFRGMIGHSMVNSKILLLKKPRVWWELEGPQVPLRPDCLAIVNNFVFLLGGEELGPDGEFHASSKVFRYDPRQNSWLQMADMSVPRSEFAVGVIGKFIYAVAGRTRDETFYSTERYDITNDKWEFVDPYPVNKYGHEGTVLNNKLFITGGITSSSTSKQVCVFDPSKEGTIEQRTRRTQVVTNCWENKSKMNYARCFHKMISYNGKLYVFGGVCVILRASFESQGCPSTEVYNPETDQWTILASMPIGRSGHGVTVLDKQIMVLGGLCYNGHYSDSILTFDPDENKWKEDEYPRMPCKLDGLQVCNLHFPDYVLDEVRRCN
Experiment: pull-down; competition: CtIP 15-mer peptide added in the indicated amounts to MBP-KLHL15 on amylose beads with HEK293T lysate
Conditions: both partners purified

binding result: binds
B1: biotinylated 15-mer peptide encompassing CtIP amino acid residues 830–844 (peptide, UniProt Q99708 830-844, looked up)
peptide: KKLASCSRHRFRYIP
modifications: also: biotinylated (position not given here)
notes: CtIP, human, residues 830-844 in the CTD; also called CtIP peptide; CtIP 15-mer peptide; source: synthetic peptide, bought: Bachem AG
